{"source": "paper PMC10621011", "about": "(ACS Omega, 2023)", "binders": {"B1": {"name": "mutPD-1Ig (Fc fusion, human, UniProt Q15116 21-161, looked up)", "chain": "PGWFLDSPDRPWNPPTFSPALLVVTEGDNATFTCSFSNTSESFVLNWYRMSPSNQTDKLAAFPEDRSQPGQDCRFRVTQLPNGRDFHMSVVRARRNDSGTYLCSAISLAPYIQIKESLRAELRVTERRAEVPTAHPSPSPR"}}, "key": {"[1]": {"target": "Human PD-L1 mouse Fc fusion protein (human, UniProt Q9NZQ7 19-238)", "sequence (Q9NZQ7 19-238)": "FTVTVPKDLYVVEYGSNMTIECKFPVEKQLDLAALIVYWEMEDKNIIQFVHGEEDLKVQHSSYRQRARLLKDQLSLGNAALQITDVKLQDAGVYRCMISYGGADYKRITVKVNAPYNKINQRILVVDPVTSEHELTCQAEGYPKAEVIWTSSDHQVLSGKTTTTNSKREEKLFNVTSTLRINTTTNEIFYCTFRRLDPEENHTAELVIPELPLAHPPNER", "assay": "ELISA"}, "[2]": {"target": "PD-L1 on H1975 human lung adenocarcinoma cells (human (on H1975 cells), UniProt Q9NZQ7 19-290)", "sequence (Q9NZQ7 19-290)": "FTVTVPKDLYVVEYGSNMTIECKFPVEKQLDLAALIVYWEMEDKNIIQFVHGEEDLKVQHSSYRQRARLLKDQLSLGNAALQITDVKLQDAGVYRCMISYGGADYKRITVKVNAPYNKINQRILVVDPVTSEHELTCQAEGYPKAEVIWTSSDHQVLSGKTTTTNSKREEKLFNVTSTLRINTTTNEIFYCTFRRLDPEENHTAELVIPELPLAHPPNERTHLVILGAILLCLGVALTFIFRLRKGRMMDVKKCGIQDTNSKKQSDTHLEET", "assay": "ELISA"}}, "note": "Where “and” joins values, the source holds several entries; their conditions need not be identical. Equal values may be shown once."}
{"binder": "B1", "values": [{"measurement": "EC50", "setting": "[1]", "result": 0.02, "unit": "nM"}, {"measurement": "EC50", "setting": "[2]", "result": "~0.2 nM and 0.1 nM and 0.13 nM"}]}
